Assays:
[1] = target: CifRTR (CifR C99T/C181R) (Pseudomonas aeruginosa); experiment: SEC
[2] = target: CifRTR (CifR C99T/C181R) (Pseudomonas aeruginosa); experiment: SEC + AUC
CifRTR [3] = target: T1, CifRTR (Pseudomonas aeruginosa, UniProt A0A0H2ZCS5 1-196, C99T;C181R); experiment: SEC
CifRTR-C107S = CifRTR-C107S (Pseudomonas aeruginosa, UniProt A0A0H2ZCS5 1-196, C99T;C107S;C181R); experiment: X-ray crystallography
CifRTR [4] = target: T1, CifRTR; experiment: EMSA
CifRTR [5] = target: T1, CifRTR; experiment: EMSA; remark: listed apart in the source

**Q.** Which results are given for “CifRTR (CifR C99T/C181R) (natural protein)”?
**A.** stoichiometry N [1]: 2; stoichiometry N [2]: 2

B1: cifR-prox dsDNA26L (dsDNA)
DNA 1: TTATTTGTATCGATCACTATAAATTT
DNA 2: AAATTTATAGTGATCGATACAAATAA
**Q.** Does B1 bind (CifRTR [3])?
**A.** binds

**Q.** Does B1 bind (CifRTR-C107S)?
**A.** binds

B2: cifR-prox dsDNA36 (dsDNA)
DNA 1: CCTCCATTATTTGTATCGATCACTATAAATTTACTT
DNA 2: AAGTAAATTTATAGTGATCGATACAAATAATGGAGG
**Q.** Does B2 bind (CifRTR [4])?
**A.** binds

B3: cifR-prox dsDNA23 (dsDNA)
DNA 1: TATTTGTATCGATCACTATAAAT
DNA 2: ATTTATAGTGATCGATACAAATA
**Q.** Does B3 bind (CifRTR [5])?
**A.** binds

Reference: PMC10827105
